Reference: the supplement of paper PMC9112550, “Optimization of the antimicrobial peptide Bac7 by deep mutational scanning” (BMC Biology, 2022)

What follows are sequences tested on Escherichia coli TOP10 (assay: shrunken log2 fold change of peptide-encoding DNA abundance (4.5 h post-induction vs induction); higher = less antimicrobial activity (less host growth inhibition)). Details: time post-induction: 4.5 h; library: site-saturation at positions 5, 18, 19, 20.
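Also: peptides expressed intracellularly from a pBAD plasmid library in pooled LB shake-flask culture, induced with 0.3% L-arabinose, DNA abundance read by NGS, three biological replicates, DESeq2 with apeglm shrinkage.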

| Sequence | shrunken log2 fold change |
| --- | --- |
| RRIRDRPPRLPRPRPRPASCPRP | 0.0585 |
| RRIRNRPPRLPRPRPRPSTWPRP | -0.332 |
| RRIRSRPPRLPRPRPRPWAAPRP | 0.327 |
| RRIRTRPPRLPRPRPRPVYMPRP | -0.382 |
| RRIRMRPPRLPRPRPRPESIPRP | 0.522 |
| RRIRVRPPRLPRPRPRPRGWPRP | 0.666 |
| RRIRDRPPRLPRPRPRPDDLPRP | 0.00447 |
| RRIRVRPPRLPRPRPRPEKRPRP | -0.218 |
| RRIRWRPPRLPRPRPRPQDGPRP | 0.0557 |
| RRIRVRPPRLPRPRPRPECKPRP | 0.0339 |
| RRIRCRPPRLPRPRPRPCRVPRP | -0.438 |
| RRIRLRPPRLPRPRPRPQNRPRP | -0.231 |
| RRIRCRPPRLPRPRPRPEVYPRP | -0.0302 |
| RRIRSRPPRLPRPRPRPAQSPRP | 0.234 |
| RRIRFRPPRLPRPRPRPFCCPRP | -0.225 |
| RRIRKRPPRLPRPRPRPEPAPRP | 1.45 |
| RRIRQRPPRLPRPRPRPGDVPRP | -0.222 |
| RRIRARPPRLPRPRPRPYSVPRP | -0.248 |
| RRIRRRPPRLPRPRPRPIVPPRP | 0.605 |
| RRIRSRPPRLPRPRPRPSLHPRP | -0.385 |
| RRIRRRPPRLPRPRPRPMTSPRP | -0.00455 |
| RRIRFRPPRLPRPRPRPWNYPRP | -0.605 |
| RRIRARPPRLPRPRPRPDEMPRP | 0.546 |
| RRIRFRPPRLPRPRPRPRVTPRP | 0.42 |
| RRIRMRPPRLPRPRPRPISDPRP | 0.0757 |

| Sequence | shrunken log2 fold change |
| --- | --- |
| RRIRKRPPRLPRPRPRPCVQPRP | -0.038 |
| RRIRRRPPRLPRPRPRPHHNPRP | -0.393 |
| RRIRLRPPRLPRPRPRPTDEPRP | -0.111 |
| RRIRDRPPRLPRPRPRPHIAPRP | 0.0931 |
| RRIRSRPPRLPRPRPRPSFSPRP | -0.351 |
| RRIRTRPPRLPRPRPRPLNYPRP | -0.415 |
| RRIRFRPPRLPRPRPRPDTMPRP | -0.0817 |
| RRIRFRPPRLPRPRPRPRYKPRP | -0.311 |
| RRIRFRPPRLPRPRPRPQLYPRP | -0.588 |
| RRIRERPPRLPRPRPRPGFFPRP | -0.191 |
| RRIRWRPPRLPRPRPRPINQPRP | -0.0913 |
| RRIRDRPPRLPRPRPRPEIYPRP | 0.0907 |
| RRIRLRPPRLPRPRPRPQSMPRP | -0.197 |
| RRIRPRPPRLPRPRPRPFCGPRP | 0.00967 |
| RRIRTRPPRLPRPRPRPKLHPRP | -0.101 |
| RRIRVRPPRLPRPRPRPAECPRP | -0.0646 |
| RRIRPRPPRLPRPRPRPFPTPRP | -0.189 |
| RRIRGRPPRLPRPRPRPHVRPRP | 0.427 |
| RRIRWRPPRLPRPRPRPMTQPRP | 0.0159 |
| RRIRRRPPRLPRPRPRPYEWPRP | 0.00618 |
| RRIRFRPPRLPRPRPRPCKRPRP | 0.0187 |
| RRIRERPPRLPRPRPRPSMPPRP | -0.484 |
| RRIRVRPPRLPRPRPRPDGCPRP | 0.101 |
| RRIRKRPPRLPRPRPRPQHCPRP | -0.0588 |
| RRIRHRPPRLPRPRPRPRYFPRP | -0.439 |

| Sequence | shrunken log2 fold change |
| --- | --- |
| RRIRARPPRLPRPRPRPQVHPRP | 0.102 |
| RRIRERPPRLPRPRPRPCTDPRP | -0.169 |
| RRIRERPPRLPRPRPRPMNQPRP | -0.67 |
| RRIRDRPPRLPRPRPRPFTWPRP | -0.12 |
| RRIRTRPPRLPRPRPRPQIDPRP | -0.269 |
| RRIRARPPRLPRPRPRPAHGPRP | 0.694 |
| RRIRNRPPRLPRPRPRPYPPPRP | -0.671 |
| RRIRPRPPRLPRPRPRPIKVPRP | -0.468 |
| RRIRTRPPRLPRPRPRPPAIPRP | 0.0134 |
| RRIRQRPPRLPRPRPRPTYSPRP | 0.0402 |
| RRIRPRPPRLPRPRPRPPRVPRP | 0.447 |
| RRIRPRPPRLPRPRPRPNPKPRP | 0.0202 |
| RRIRSRPPRLPRPRPRPVPFPRP | -0.237 |
| RRIRGRPPRLPRPRPRPRFWPRP | 0.943 |
| RRIRHRPPRLPRPRPRPDIFPRP | -0.223 |
| RRIRNRPPRLPRPRPRPNMSPRP | -0.0455 |
| RRIRYRPPRLPRPRPRPPMHPRP | -0.418 |
| RRIRIRPPRLPRPRPRPKTAPRP | -0.143 |
| RRIRMRPPRLPRPRPRPTQIPRP | 0.386 |
| RRIRARPPRLPRPRPRPDCVPRP | 0.813 |
| RRIRARPPRLPRPRPRPGQCPRP | 0.203 |
| RRIRERPPRLPRPRPRPMWAPRP | -0.122 |
| RRIRGRPPRLPRPRPRPEETPRP | 1.51 |
| RRIRWRPPRLPRPRPRPFQWPRP | 0.236 |
| RRIRWRPPRLPRPRPRPILDPRP | 0.187 |

| Sequence | shrunken log2 fold change |
| --- | --- |
| RRIRGRPPRLPRPRPRPWFSPRP | -0.246 |
| RRIRHRPPRLPRPRPRPCAIPRP | -0.303 |
| RRIRERPPRLPRPRPRPIIWPRP | -0.204 |
| RRIRLRPPRLPRPRPRPIQYPRP | 0.147 |
| RRIRTRPPRLPRPRPRPIIKPRP | -0.67 |
| RRIRWRPPRLPRPRPRPFKFPRP | -0.174 |
| RRIRVRPPRLPRPRPRPRQVPRP | 0.0645 |
| RRIRERPPRLPRPRPRPANHPRP | -0.00846 |
| RRIRRRPPRLPRPRPRPGANPRP | 0.208 |
| RRIRQRPPRLPRPRPRPQANPRP | -0.165 |
| RRIRPRPPRLPRPRPRPDPFPRP | -0.0897 |
| RRIRMRPPRLPRPRPRPVREPRP | 1.19 |
| RRIRHRPPRLPRPRPRPTACPRP | 0.074 |
| RRIRFRPPRLPRPRPRPKNYPRP | -0.525 |
| RRIRWRPPRLPRPRPRPNLWPRP | 0.587 |
| RRIRFRPPRLPRPRPRPMAQPRP | -0.337 |
| RRIRVRPPRLPRPRPRPSNFPRP | -0.476 |
| RRIRLRPPRLPRPRPRPCQYPRP | -0.448 |
| RRIRHRPPRLPRPRPRPEEAPRP | 0.015 |
| RRIRIRPPRLPRPRPRPVWPPRP | 0.0939 |
| RRIRNRPPRLPRPRPRPQKNPRP | -0.318 |
| RRIRYRPPRLPRPRPRPWIGPRP | -0.314 |
| RRIRLRPPRLPRPRPRPCMTPRP | 0.0964 |
| RRIRFRPPRLPRPRPRPHASPRP | -0.259 |
| RRIRGRPPRLPRPRPRPRDDPRP | 0.536 |

| Sequence | shrunken log2 fold change |
| --- | --- |
| RRIRDRPPRLPRPRPRPRPAPRP | 0.966 |
| RRIRIRPPRLPRPRPRPTEFPRP | -0.408 |
| RRIRKRPPRLPRPRPRPMMEPRP | -0.00277 |
| RRIRFRPPRLPRPRPRPYTAPRP | -1.07 |
| RRIRERPPRLPRPRPRPLVMPRP | -0.0346 |
| RRIRQRPPRLPRPRPRPNQCPRP | 0.0304 |
| RRIRMRPPRLPRPRPRPGCYPRP | 0.135 |
| RRIRWRPPRLPRPRPRPHPVPRP | -0.0118 |
| RRIRKRPPRLPRPRPRPEGVPRP | 1.44 |
| RRIRHRPPRLPRPRPRPFETPRP | 0.0877 |
| RRIRCRPPRLPRPRPRPHNLPRP | -0.592 |
| RRIRLRPPRLPRPRPRPKETPRP | 0.137 |
| RRIRKRPPRLPRPRPRPMRTPRP | 3.66 |
| RRIRSRPPRLPRPRPRPEILPRP | -0.0652 |
| RRIRPRPPRLPRPRPRPCVVPRP | 1.73 |
| RRIRIRPPRLPRPRPRPVMNPRP | -0.61 |
| RRIRQRPPRLPRPRPRPSMKPRP | -0.166 |
| RRIRPRPPRLPRPRPRPFLQPRP | -0.207 |
| RRIRCRPPRLPRPRPRPKQTPRP | -0.0521 |
| RRIRLRPPRLPRPRPRPVVNPRP | -0.0535 |
| RRIRMRPPRLPRPRPRPEYSPRP | 0.0257 |
| RRIRFRPPRLPRPRPRPRRNPRP | 0.136 |
| RRIRDRPPRLPRPRPRPMSFPRP | -0.00238 |
| RRIRRRPPRLPRPRPRPQETPRP | 0.00135 |
| RRIRNRPPRLPRPRPRPKAEPRP | 0.153 |

| Sequence | shrunken log2 fold change |
| --- | --- |
| RRIRGRPPRLPRPRPRPNLDPRP | 0.265 |
| RRIRRRPPRLPRPRPRPEKYPRP | 0.135 |
| RRIRDRPPRLPRPRPRPRWKPRP | 0.0064 |
| RRIRVRPPRLPRPRPRPTVDPRP | 0.177 |
| RRIRGRPPRLPRPRPRPFKVPRP | -0.14 |
| RRIRRRPPRLPRPRPRPELTPRP | -0.0257 |
| RRIRGRPPRLPRPRPRPPCVPRP | 1.15 |
| RRIRMRPPRLPRPRPRPPRNPRP | 1.27 |
| RRIRFRPPRLPRPRPRPRARPRP | 0.661 |
| RRIRVRPPRLPRPRPRPSEHPRP | -0.779 |
| RRIRMRPPRLPRPRPRPHNAPRP | 0.207 |
| RRIRWRPPRLPRPRPRPRHRPRP | 0.138 |
| RRIRSRPPRLPRPRPRPIWAPRP | -0.133 |
| RRIRSRPPRLPRPRPRPIICPRP | -0.258 |
| RRIRERPPRLPRPRPRPNSAPRP | -0.503 |
| RRIRIRPPRLPRPRPRPIYCPRP | -0.0326 |
| RRIRTRPPRLPRPRPRPHGNPRP | -0.718 |
| RRIRLRPPRLPRPRPRPNYMPRP | -0.251 |
| RRIRCRPPRLPRPRPRPVTNPRP | -0.0299 |
| RRIRARPPRLPRPRPRPIPYPRP | -0.0777 |
| RRIRDRPPRLPRPRPRPIKAPRP | -0.149 |
| RRIRMRPPRLPRPRPRPRCIPRP | -0.0309 |
| RRIRRRPPRLPRPRPRPGFKPRP | 0.0975 |
| RRIRMRPPRLPRPRPRPGEIPRP | 0.995 |
| RRIRERPPRLPRPRPRPSHHPRP | -0.73 |
